Measured values: paper PMC3338870 (Nature, 2012)

T1: γc ectodomain (human, UniProt P31785 23-262, C-terminally biotinylated (staining reagent for yeast))
T1 sequence: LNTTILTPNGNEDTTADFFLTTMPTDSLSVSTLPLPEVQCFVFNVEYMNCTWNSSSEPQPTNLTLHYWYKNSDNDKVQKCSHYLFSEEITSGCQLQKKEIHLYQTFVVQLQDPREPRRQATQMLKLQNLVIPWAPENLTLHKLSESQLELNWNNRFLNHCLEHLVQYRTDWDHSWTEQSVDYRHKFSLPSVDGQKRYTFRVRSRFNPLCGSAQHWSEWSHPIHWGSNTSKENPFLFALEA

B1: IL-2Rβ ectodomain (receptor)
chain: AVNGTSQFTCFYNSRANISCVWSQDGALQDTSCQVHAWPDRRRWNQTCELLPVSQASWACNLILGAPDSQKLTTVDIVTLRVLCREGVRWRVMAIQDFKPFENLRLMAPISLQVVHVETHRCNISWEISQASHYFERHLEFEARTLSPGHTWEEAPLLTLKQKQEWICLETLTPDTQYEFQVRVKPLQGEFTTWSPWSQPLAFRTKPAALGKDT
modifications: C-terminally biotinylated (staining reagent for yeast)

How the values were obtained:
CD25 ectodomain = CD25 ectodomain (UniProt P01589)
γc ectodomain = biological target: T1, γc ectodomain; experiment: crystal structure

CD25 ectodomain, sequence (P01589 22-240): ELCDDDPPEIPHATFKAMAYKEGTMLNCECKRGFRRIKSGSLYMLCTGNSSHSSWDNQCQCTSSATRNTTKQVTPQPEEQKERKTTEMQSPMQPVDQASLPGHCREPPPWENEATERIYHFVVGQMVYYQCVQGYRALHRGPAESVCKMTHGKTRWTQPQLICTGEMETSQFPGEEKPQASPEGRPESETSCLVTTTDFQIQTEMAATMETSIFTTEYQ

Kd (CD25 ectodomain) | binding result (γc ectodomain) | Molecule
1400 nM | – | H9 F42A (from UniProt P60568 21-153) (designed binder)
6.6 nM | – | H9 super-2 (IL-2 superkine, second generation) (from UniProt P60568 21-153) (designed binder)
– | binds | B1
